Laboratory results from US20060104978A1, “Methods and compositions for PDGF-C activation and inhibition” (LUDWIG INSTITUTE FOR CANCER RESEARCH, priority 2003, published 2006).

Legend:
PDGFR-α = target: T1, PDGFR-α (Homo sapiens, UniProt P16234); assay: PDGFR-α tyrosine phosphorylation in PAE cells stably expressing PDGFR-α; type: cell-based; conditions: conditioned medium from transfected COS-1 cells applied to PAE cells, 120 min on ice
T1 construct: expressed in transfected cells
Description: It was verified that the growth factor domain in PDGF-CC released by tPA-mediated proteolysis is an efficient PDGFR-A ligand. Conditioned media from transfected COS-1 cells were applied onto porcine aortic endothelial (PAE) cells with stable expression of PDGFR-α (FIG. 5A).
To understand the structural requirements for receptor-binding and activation of PDGF-CC, the series of truncated mutants of PDGF-CC generated above were analysed for their ability to activate PDGFR-α in PAE cells. Conditioned media containing the truncated mutants of PDGF-CC were applied onto PAE cells, and the activation of the receptors was monitored by induction of receptor tyrosine phosphorylation (FIG. 6D).
To monitor growth factor-induced tyrosine phosphorylation of PDGFR-α, serum-starved PAE cells stably expressing human PDGFR-α were incubated for 120 min on ice with conditioned medium from COS-1 cells transfected with full-length PDGF-C in the absence or presence of tPA. Alternatively, primary wild-type and tPA-deficient fibroblasts were stimulated with 100 ng/ml activated PDGF-CC protein. The cells were lysed as described previously (Li et al, 2000) and PDGFR-α was immunoprecipitated using a specific antiserum (Eriksson et al, 1992). […] Tyrosinephosphorylated receptors were detected by immunoblotting using an antiphosphotyrosine antibody (PY99, Santa Cruz). […]

latent PDGF-CC [1] = target: T2, latent PDGF-CC (Homo sapiens, UniProt Q9NRA1); assay: In vitro cleavage of recombinant latent PDGF-CC with purified tPA; type: biochemical; parameters: His6-tagged recombinant full-length PDGF-CC; made in house; host or cells: Sf9 insect cells, baculovirus; conditions: 0.2-20 μg/ml tPA, 4 hours at 37° C., CNBr activated fibrinogen
Excerpt: (§1) A cotransfection assay was established to identify serine proteases able to cleave and activate latent PDGF-CC. Expression plasmids encoding the relevant enzymes and full-length PDGF-C were cotransfected into COS-1 cells, and aliquots of the conditioned media from the transfectants were subjected to SDS-PAGE and immunoblotting using antibodies to the growth factor domain of PDGF-C. […] As a specificity control, the ability of tPA and NT to use full-length PDGF-DD as the substrate in the cotransfection assay was analysed. […] One difference in the latter results, as compared with the results from the cotransfection assay, was that purified tPA generated a second intermediate species of 32 kDa using latent PDGF-CC as the substrate. It is possible that this intermediate is the result of digestion by plasmin contamination in the tPA preparation, since the size of the fragment is similar to that of plasmincleaved PDGF-CC previously reported (Li et al, 2000).
Recombinant latent PDGF-CC and PDGF-DD were digested with human tPA in 100 mM Tris-HCl pH 7.5, 0.1% Tween 20, and 0.1 mg/ml CNBr activated fibrinogen (Sigma) for 4 hours at 37° C. using 0.2-20 μg/ml tPA purified from human melanoma cells (T7776, Sigma). The digestions were analyzed by SDS-PAGE under reducing conditions and immunoblotted using affinity-purified antibodies against PDGF-C and PDGF-D, respectively (see above).

latent PDGF-CC [2] = target: T2, latent PDGF-CC; assay: Cotransfection assay in COS-1 cells: protease plus full-length PDGF-C; type: cell-based; parameters: cotransfected with full-length PDGF-C (Li et al, 2000), full-length PDGF-D (Bergsten et al, 2001); expressed in transfected cells; host or cells: COS-1 cells; conditions: COS-1 conditioned medium, immunoblot, 22 kDa species under reducing conditions
Excerpt: as §1, with “2000). […]” for “2000).”
To test the endogenous expression of PDGF-CC, subconfluent AG1523 cells and primary fibroblast cultures were cultured in serum-free DMEM overnight. […] In the case of the primary cultures, total protein concentration was measured and normalized (Bradford, 1976). […]

T2 sequence (Q9NRA1 23-345): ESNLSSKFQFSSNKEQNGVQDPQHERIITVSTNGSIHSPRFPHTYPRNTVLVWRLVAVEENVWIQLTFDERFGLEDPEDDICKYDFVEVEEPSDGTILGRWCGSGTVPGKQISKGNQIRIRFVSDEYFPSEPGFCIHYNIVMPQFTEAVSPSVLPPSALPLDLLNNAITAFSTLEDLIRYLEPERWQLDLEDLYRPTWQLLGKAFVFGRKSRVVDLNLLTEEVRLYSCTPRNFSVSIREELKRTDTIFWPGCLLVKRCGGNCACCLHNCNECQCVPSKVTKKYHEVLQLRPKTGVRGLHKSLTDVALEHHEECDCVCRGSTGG
T1 sequence (P16234 24-1089): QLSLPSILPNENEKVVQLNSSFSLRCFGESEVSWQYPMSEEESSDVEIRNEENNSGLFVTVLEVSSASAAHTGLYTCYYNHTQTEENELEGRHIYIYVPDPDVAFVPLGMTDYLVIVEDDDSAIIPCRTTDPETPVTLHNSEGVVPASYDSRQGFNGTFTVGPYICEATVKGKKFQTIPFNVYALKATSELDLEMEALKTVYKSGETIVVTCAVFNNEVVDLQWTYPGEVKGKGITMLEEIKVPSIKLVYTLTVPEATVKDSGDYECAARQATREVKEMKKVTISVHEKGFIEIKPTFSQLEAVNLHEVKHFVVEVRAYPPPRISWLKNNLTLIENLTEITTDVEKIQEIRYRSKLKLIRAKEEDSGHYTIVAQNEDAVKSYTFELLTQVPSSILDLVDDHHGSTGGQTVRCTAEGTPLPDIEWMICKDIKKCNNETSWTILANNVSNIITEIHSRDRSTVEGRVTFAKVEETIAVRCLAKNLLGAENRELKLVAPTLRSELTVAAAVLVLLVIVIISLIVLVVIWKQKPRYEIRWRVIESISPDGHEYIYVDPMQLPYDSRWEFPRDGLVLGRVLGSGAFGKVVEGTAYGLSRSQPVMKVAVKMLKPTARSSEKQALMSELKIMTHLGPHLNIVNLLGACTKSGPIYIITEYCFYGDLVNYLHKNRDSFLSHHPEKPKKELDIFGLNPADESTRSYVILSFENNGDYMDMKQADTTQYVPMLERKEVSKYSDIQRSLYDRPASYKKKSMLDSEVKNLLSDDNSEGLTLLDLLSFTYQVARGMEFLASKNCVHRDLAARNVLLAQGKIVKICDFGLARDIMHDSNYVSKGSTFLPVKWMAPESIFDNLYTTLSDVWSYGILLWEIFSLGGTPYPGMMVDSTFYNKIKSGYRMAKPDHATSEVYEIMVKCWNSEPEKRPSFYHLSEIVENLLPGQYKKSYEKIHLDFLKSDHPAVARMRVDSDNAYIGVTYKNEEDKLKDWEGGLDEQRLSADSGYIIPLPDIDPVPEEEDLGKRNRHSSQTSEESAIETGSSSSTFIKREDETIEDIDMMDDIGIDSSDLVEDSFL

Substance: tPA: tissue plasminogen activator, secreted serine protease; expressed, purified from human melanoma cells or recombinant
- PDGFR-α activation (receptor tyrosine phosphorylation) (PDGFR-α): failed to induce receptor activation
- cleavage of recombinant latent PDGF-CC by purified tPA (latent PDGF-CC [1]): PDGF-CC, but not PDGF-DD, is a substrate for tPA
- cleavage of latent PDGF-CC by the coexpressed protease (latent PDGF-CC [2]): released the growth factor domain of latent PDGFCC
